Drawing on patent publication US20100048868A1, this text covers Kd and koff for one substance.

In general, pKd refers to −log10 of the Kd, conventionally taken in molar units. What is called koff is the rate constant with which the complex falls apart.

This assay addresses recombinant human HER2 extracellular domain (human) (UniProt P04626). Kind of assay: SPR (Biacore 2000), HER2-ECD immobilised, 1:1 model, 25 C. Background: SPR reads the build-up and loss of mass on a sensor chip optically.

pKd: −log10 of the molar value.

Take His6-(ZHER2 A)2 (designed binder): the pKd is 8.52 and the koff came out at 0.00076 s⁻¹.
